T1: human GIP receptor (human) (UniProt P48546)
T1 sequence (looked up): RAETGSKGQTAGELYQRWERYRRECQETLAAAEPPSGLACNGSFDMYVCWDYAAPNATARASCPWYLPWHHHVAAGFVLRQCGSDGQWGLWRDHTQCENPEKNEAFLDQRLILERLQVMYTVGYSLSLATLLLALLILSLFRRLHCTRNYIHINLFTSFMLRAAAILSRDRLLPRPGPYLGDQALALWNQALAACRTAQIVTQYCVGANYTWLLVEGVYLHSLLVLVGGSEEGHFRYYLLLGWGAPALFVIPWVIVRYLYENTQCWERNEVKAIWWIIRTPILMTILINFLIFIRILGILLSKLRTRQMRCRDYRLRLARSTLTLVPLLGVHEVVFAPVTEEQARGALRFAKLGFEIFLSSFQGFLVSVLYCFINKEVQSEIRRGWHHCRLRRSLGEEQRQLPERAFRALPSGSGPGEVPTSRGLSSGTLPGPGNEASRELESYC

T2: mouse GIP receptor (mouse) (UniProt Q0P543)
T2 sequence (looked up): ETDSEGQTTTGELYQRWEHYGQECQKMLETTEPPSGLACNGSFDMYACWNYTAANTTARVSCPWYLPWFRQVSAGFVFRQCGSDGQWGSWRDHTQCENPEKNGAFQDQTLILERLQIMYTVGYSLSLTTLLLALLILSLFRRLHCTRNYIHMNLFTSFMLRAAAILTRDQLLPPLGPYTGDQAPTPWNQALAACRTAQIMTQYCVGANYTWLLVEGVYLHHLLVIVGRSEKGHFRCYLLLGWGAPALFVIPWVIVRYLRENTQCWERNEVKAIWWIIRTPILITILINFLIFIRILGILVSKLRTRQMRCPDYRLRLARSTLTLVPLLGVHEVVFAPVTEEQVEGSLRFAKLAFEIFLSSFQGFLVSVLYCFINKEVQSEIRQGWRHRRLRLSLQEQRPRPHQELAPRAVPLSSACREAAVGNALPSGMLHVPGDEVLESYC

T3: rat GIP receptor (rat) (UniProt P43219)
T3 sequence (looked up): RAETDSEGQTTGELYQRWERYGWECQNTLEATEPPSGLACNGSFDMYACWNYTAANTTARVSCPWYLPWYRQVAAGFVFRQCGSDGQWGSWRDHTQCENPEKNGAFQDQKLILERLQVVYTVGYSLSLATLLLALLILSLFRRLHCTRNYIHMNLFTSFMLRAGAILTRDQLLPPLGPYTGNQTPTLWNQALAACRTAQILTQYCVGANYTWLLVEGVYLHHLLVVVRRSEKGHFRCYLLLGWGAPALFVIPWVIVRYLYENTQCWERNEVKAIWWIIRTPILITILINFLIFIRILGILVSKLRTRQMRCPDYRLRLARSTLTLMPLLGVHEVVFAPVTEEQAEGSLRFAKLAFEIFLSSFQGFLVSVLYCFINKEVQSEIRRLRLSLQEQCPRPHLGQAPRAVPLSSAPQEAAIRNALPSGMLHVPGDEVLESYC


Tests used:
Assay in all cases: cell-based or functional assay
[1] = target: T1, human GIP receptor (human)
[2] = target: human GLP-1 receptor (human) (UniProt P43220)
Chain of human GLP-1 receptor (human) (P43220 24-463): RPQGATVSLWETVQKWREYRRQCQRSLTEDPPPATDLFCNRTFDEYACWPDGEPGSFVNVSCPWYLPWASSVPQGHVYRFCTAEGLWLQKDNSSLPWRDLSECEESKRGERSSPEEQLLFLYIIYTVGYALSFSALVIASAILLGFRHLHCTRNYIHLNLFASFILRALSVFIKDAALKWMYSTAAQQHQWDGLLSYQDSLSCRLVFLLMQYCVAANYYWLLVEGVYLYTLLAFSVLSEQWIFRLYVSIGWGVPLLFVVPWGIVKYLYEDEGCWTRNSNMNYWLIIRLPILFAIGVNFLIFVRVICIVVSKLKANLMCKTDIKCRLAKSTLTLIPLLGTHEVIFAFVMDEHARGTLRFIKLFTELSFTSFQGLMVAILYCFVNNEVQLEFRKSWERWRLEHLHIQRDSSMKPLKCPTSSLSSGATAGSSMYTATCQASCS

[3] = target: human glucagon receptor (human) (UniProt P47871)
Chain of human glucagon receptor (human) (P47871 26-477): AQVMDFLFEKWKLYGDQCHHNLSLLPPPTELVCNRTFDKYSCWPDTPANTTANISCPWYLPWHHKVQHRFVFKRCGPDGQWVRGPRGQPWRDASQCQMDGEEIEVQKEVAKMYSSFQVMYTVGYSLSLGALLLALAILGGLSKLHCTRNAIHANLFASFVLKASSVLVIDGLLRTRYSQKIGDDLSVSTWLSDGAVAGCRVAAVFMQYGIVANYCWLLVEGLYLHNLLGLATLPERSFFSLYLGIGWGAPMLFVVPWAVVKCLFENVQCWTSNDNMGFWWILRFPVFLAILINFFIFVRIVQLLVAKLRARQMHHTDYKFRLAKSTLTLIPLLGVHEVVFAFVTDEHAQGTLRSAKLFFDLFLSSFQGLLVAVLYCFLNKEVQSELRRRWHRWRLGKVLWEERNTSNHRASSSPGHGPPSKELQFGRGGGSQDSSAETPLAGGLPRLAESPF

[4] = target: T2, mouse GIP receptor (mouse)
[5] = target: mouse GLP-1 receptor (mouse) (UniProt O35659)
Chain of mouse GLP-1 receptor (mouse) (O35659 22-463): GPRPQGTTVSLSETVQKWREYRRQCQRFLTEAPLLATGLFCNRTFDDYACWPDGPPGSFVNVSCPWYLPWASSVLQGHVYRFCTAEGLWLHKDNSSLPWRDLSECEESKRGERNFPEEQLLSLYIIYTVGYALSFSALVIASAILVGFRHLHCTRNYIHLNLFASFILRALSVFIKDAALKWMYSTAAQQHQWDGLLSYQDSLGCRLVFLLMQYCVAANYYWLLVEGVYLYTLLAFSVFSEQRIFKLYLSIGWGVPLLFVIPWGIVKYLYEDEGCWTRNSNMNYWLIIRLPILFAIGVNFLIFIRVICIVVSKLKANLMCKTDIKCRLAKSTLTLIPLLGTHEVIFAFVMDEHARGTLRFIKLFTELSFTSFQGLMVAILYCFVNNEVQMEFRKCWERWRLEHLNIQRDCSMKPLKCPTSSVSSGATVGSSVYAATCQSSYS

rat GIP receptor (rat) = target: T3, rat GIP receptor (rat)
rat GLP-1 receptor (rat) = rat GLP-1 receptor (rat) (UniProt P32301)
Chain of rat GLP-1 receptor (rat) (P32301 22-463): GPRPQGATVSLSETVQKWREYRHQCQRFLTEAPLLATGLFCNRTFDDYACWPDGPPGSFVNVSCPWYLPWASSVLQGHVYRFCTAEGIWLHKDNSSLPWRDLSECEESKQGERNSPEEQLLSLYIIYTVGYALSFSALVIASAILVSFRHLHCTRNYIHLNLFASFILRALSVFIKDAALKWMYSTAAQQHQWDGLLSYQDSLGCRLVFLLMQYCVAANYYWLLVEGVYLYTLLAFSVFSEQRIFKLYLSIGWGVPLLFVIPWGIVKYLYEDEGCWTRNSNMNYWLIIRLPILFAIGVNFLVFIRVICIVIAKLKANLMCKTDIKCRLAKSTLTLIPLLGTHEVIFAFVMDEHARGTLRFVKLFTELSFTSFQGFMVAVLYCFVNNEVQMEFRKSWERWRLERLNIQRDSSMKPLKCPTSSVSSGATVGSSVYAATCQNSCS

Binder | cAMP EC50 [1] [nM] | cAMP EC50 [2] [nM] | cAMP EC50 [3] [nM] | cAMP EC50 [4] [nM] | cAMP EC50 [5] [nM] | cAMP EC50 (rat GIP receptor (rat)) [nM] | cAMP EC50 (rat GLP-1 receptor (rat)) [nM] | cAMP EC50, hGIPr (C3) line [1] [nM] | cAMP EC50, Batch 2 [1] [nM] | cAMP EC50, Batch 2 [2] [nM] | cAMP EC50, Batch 2 [3] [nM] | cAMP EC50, Batch 2 [4] [nM] | cAMP EC50, Batch 2 [5] [nM] | cAMP EC50, Batch 2 (rat GIP receptor (rat)) [nM] | cAMP EC50, Batch 2 (rat GLP-1 receptor (rat)) [nM]
IP247 (Fc fusion) YSEGTFTSDYSKLLEKIHQQLFIEWLVKGPAAAGGSGSTASSGSGSATGGGGAATHTCPPCPAPEF | 0.019 | 63 | > 420 | 2.3 | 280 | 0.03 | 11 |  |  |  |  |  |  |  | 
IP301 (Fc fusion) YSEGTFTSDVSSYLEREAIDEFIAWLLKGGAAAGGSGSTASSGSGSATGGGGAATHTCPPC | 0.12 | 0.31 | 12000 | 22 | 1.9 | 4.7 | 0.058 |  |  |  |  |  |  |  | 
IP309 (Fc fusion) YSEGTFISDVSSYLERQAIDEFIAWLLKGGAAAGGSGSTASSGSGSATGGGGAATHTCPPC | 0.086 | 7.7 | 900 | 15 | 16 | 1.3 | 1.7 |  |  |  |  |  |  |  | 
IP389 (Fc fusion) YSEGTFISDYSIAMDKIHQQDFVNWLLAQKGGGGGSGGGGSGGGGSGGGGSGGGGSGGGGSGGGGSACPPC | 0.0027 | 65 | > 269 | 0.017 | 1300 | 0.0072 | 9.9 |  |  |  |  |  |  |  | 
IP392 (Fc fusion) YSEGTFISDYSIAMDKIHQQDFVNWLLAQKGAANDWKHNITQGGGGSGGGGSGGGGSGGGGSGGGGSGGGGSACPPC | 0.0026 | 2800 | 530 | 0.031 | > 17100 | 0.0076 | 720 |  |  |  |  |  |  |  | 
IP398 (Fc fusion) YSEGTFISDYSIAMDKIHQQDFVNWLLAQKGKKNDWKHNITQGGGGSGGGGSGGGGSGGGGSGGGGSGGGGSACPPC | 0.0037 | 9500 | 1600 | 0.012 | > 17200 | 0.0056 | 14000 |  |  |  |  |  |  |  | 
IP359 (Fc fusion) YSEGTFTSDYSKLLEEEAVRLFIEHLLAGGGGGGSGGGGSGGGGSGGGGSATHTCPPC | 0.011 | 0.061 | 43 | 8.3 | 0.2 | 0.039 | 0.04 |  |  |  |  |  |  |  | 
IP380 (Fc fusion) YSEGTFTSDYSKLLEEEAVRLFIEFLLAGGGGGGSGGGGSGGGGSGGGGSATHTCPPC | 0.0084 | 0.11 | 25 | 6.6 | 1.2 | 0.06 | 0.031 |  |  |  |  |  |  |  | 
IP275 (Fc fusion) YSEGTFTSDYSKLLEKEAQRLFIEWLLKGPGGGGGSGGGGSGGGGSGGGGSATHTCPPC | 0.0087 | 0.92 | 230 | 0.26 | 1.7 | 0.014 | 0.062 |  |  |  |  |  |  |  | 
IP402 (Fc fusion) YSEGTFISDYSIAMDKIHQQDFVNWLLAQKGSGGGGSGGGGSGGGGSGGGGSGGGGSGGGGSGGGGSACPPC | 0.038 | 31 | 200 | 0.033 | 850 | 0.0068 | 11 |  |  |  |  |  |  |  | 
IP209 (Fc fusion) YSEGTFTSDYSSYMERQAIDEFIAWLLKGGAAAGGSGSTASSGSGSATGGGGAATHTCPPCPAPEF | 0.058 | 0.23 |  | 4.9 | 0.84 | 0.22 | 0.075 |  | 0.028 | 0.2 | > 6270 | > 6300 | 1.6 | 1.3 | 0.091
IP339 (Fc fusion) YSEGTFTSDYSKLLEKEAQRLFIEWLLAGGGGGGGSGGGGSGGGGSGGGGSGGGGSGGGGSA | 0.0098 | 0.18 | 23 | 0.091 | 1.6 | 0.012 | 0.05 |  |  |  |  |  |  |  | 

The next lines start with the values.

cAMP EC50 [1] [nM] | cAMP EC50 [2] [nM] | cAMP EC50 [3] [nM] | cAMP EC50 [4] [nM] | cAMP EC50 [5] [nM] | cAMP EC50 (rat GIP receptor (rat)) [nM] | cAMP EC50 (rat GLP-1 receptor (rat)) [nM] | cAMP EC50, hGIPr (C3) line [1] [nM] | cAMP EC50, Batch 2 [1] [nM] | cAMP EC50, Batch 2 [2] [nM] | cAMP EC50, Batch 2 [3] [nM] | cAMP EC50, Batch 2 [4] [nM] | cAMP EC50, Batch 2 [5] [nM] | cAMP EC50, Batch 2 (rat GIP receptor (rat)) [nM] | cAMP EC50, Batch 2 (rat GLP-1 receptor (rat)) [nM] | Binder
0.021 | > 3640 | 53 | 210 | > 3640 | 0.11 | 19 |  |  |  |  |  |  |  |  | IP299 (Fc fusion) YSEGTFISDYSKLLEEEAVRDFVEWLKAGGGGGGGSGGGGSGGGGSGGGGSATHTCPPC
0.091 | 1.6 | 4100 | 31 | 6.5 | 5.2 | 0.21 |  |  |  |  |  |  |  |  | IP307 (Fc fusion) YSEGTFTSDVSSYMERQAIDEFIAWLLKQGAAAGGSGSTASSGSGSATGGGGAATHTCPPC
0.011 | 0.1 | 220 | 0.25 | 0.25 | 0.026 | 0.015 |  |  |  |  |  |  |  |  | IP306 (Fc fusion) YSEGTFTSDYSKLLERQAIDEFIAWLLKGGAAAGGSGSTASSGSGSATGGGGAATHTCPPC
0.0045 | 370 | 220 | 0.019 | > 1470 | 0.0075 | 110 |  |  |  |  |  |  |  |  | IP387 (Fc fusion) YSEGTFISDYSIAMDKIHQQDFVNWLLAQKGGGGGSGGGGSGGGGSGGGGSGGGGSGGGGSGGGGSGGGGSACPPC
0.0034 | > 9130 | 540 | 0.03 | > 16600 | 0.0085 | > 16600 |  |  |  |  |  |  |  |  | IP386 (Fc fusion) YSEGTFISDYSIAMDKIHQQDFVNWLLAQKGGGGGSGGGGSGGGGSGGGGSACPPC
 | 0.073 | > 440 | 0.4 | 1.2 | 0.018 | 0.022 | 1.3 |  |  |  |  |  |  |  | IP412 (Fc fusion) YSEGTFTSDYSKLLEEEANRLFIEWLLAGGGGGGSGGGGSGGGGSGGGGSATHTCPPC
0.0099 | 0.091 | 18 | 5.4 | 0.73 | 0.045 | 0.027 |  |  |  |  |  |  |  |  | IP381 (Fc fusion) YSEGTFTSDYSKLLEEEAVRLFIEYLLAGGGGGGSGGGGSGGGGSGGGGSATHTCPPC
0.01 | 3.4 | 240 | 0.44 | 6.8 | 0.02 | 0.23 |  |  |  |  |  |  |  |  | IP289 (Fc fusion) YSEGTFTSDYSKLLEKEAERLFIEWLLKGPGGGGGSGGGGSGGGGSGGGGSATHTCPPC
